Three molecules from patent publication US20220056091A1 (BRIGHT PEAK THERAPEUTICS, published 2022) can be followed below.

Substitutions are numbered along the chain they refer to. Numbers in names are those of the source.

One may read the EC50 (read off the curve) as the midpoint of the concentration-response curve. Broadly, the Kd is the constant that tells how readily two partners part at equilibrium. Lower therefore signals higher affinity. The koff is the rate constant with which the complex falls apart. Read a low koff as a long-lived complex. As a reminder, the kon is the second-order rate constant of association. The low end stands for slower complex formation, the high end for faster complex formation.

For test [1], the target named is anti-IL18 monoclonal antibody (MBL, cat #D043-3, Clone 25-2G). In words: sandwich ELISA, capture clone 25-2G, detection biotinylated clone 159-12B; in the presence of IL-18BP (form and concentration not given); the signal depends on both antibodies. The method, then: (§1) Immune-related PD effects were determined by analyzing cytokine levels in plasma. The following plasma cytokines were measured: IFNγ, CXCL9, CXCL10, GM-CSF, IL-1a, FasL, and IL-18BP. The activation status of leukocytes was determined by monitoring surface markers: ICOS, PD-1, CD25, CD69, and Fas. Bioanalysis was conducted by detecting the total amount of IL-18 variants (free and IL-18BP-complexed, see FIG. 7). Corning high-binding half-area plates (Fisher Scientific, Reinach, Switzerland) were coated overnight at 4° C. with 25 μl of anti-IL18 monoclonal antibody (MBL, cat #D043-3, Clone 25-2G) at 2 μg/ml in PBS. Plates were then washed four times with 100 μl of PBS-0.02% Tween20. Plates surfaces were blocked with 25 μl of PBS-0.02% Tween20-1% BSA at 37° C. during 1 h. Plates were then washed four times with 100 μl of PBS-0.02% Tween20. Twenty-five microliters of IL-18 variants (or of mouse plasma) were added in […] serial dilutions starting at 50 nM down to 0.02 nM into PBS-0.02% Tween20-0.1% BSA and incubated at 37° C. during 2h. […] Plates were incubated during 2h at 37° C. and were then washed four times with 100 μl of PBS-0.02% Tween20. […] ELISA signal was then measured at 450 nm on an EnSpire plate reader from Perkin Elmer (Schwerzenbach, Switzerland)

Test [2] concerns the target IL-18R on HEK-Blue IL18R reporter cells (InvivoGen, #hkb-hmil18). Put plainly: cell-based or functional assay.
Test [3] addresses anti-IL18 monoclonal antibody (MBL, cat #D043-3, Clone 25-2G). Put plainly: sandwich ELISA, capture clone 25-2G, detection biotinylated clone 159-12B; without IL-18BP; the signal depends on both antibodies. The method, then:
as §1
On the technique in general: An ELISA detects its analyte on a solid surface through an enzyme-linked reagent.

Test [4] concerns the target T1, Fc fused human IL-18Rα (human, UniProt Q13478 19-329, limits assumed).
T1 construct: also called IL-18Rα monomer; IL-18 receptor alpha; not shown: Fc part
T1 sequence (looked up): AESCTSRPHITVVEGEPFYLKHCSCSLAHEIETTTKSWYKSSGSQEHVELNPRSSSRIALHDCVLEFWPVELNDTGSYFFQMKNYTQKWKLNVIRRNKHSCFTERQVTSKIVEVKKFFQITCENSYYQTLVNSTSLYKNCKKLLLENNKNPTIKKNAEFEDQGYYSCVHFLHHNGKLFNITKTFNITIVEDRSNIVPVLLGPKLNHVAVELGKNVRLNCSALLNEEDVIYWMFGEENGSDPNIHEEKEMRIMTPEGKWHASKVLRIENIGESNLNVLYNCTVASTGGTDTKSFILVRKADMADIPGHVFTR
Put plainly: SPR, Fc-IL-18Rα captured, 1:1 model. The protocol: (§2) The interaction of the wild type and of modified IL-18 polypeptides with human IL-18 receptor subunits were measured with Surface Plasmon Resonance (SPR) technology. Anti-human IgG antibodies were bound by amine coupling onto a CM5 chip to capture 6 μg/mL of Fc fused human IL-18Rα, 6 μg/mL of Fc fused human IL-18Rβ, or 2 μg/mL of Fc fused human IL-18BP isoform a (IL-18BPa) for 30 min before capture. In other settings, 6 μg/mL of alpha and beta IL-18 receptors were mixed and pre-incubated for 30 min before capture of the alpha/beta heterodimer IL-18 receptor.
(§3) The kinetic binding of the IL-18 analytes were measured with a Biacore 8K instrument in two-fold serial dilutions starting at 1 μM down to 0.98 nM. Regeneration of the surface back to amine coupled anti IgG antibody was done after every concentration of analyte. To measure the protein association to the receptors, the samples were injected with a flow rate of 50 μL/min for 60 s, followed by 300 s buffer only to detect the dissociation. The used running buffer was 1×PBS with 0.05% Tween20. The relative response units (RU, Y-axis) are plotted against time (s, X-axis) and analyzed in a kinetic 1:1 binding model for the monomer receptor binding and for the binding to the IL-18BP. A kinetic heterogenous ligand fit model was applied for the alpha/beta heterodimer binding.
Modified IL-18 polypeptides having sequence modifications E06K, K53A, S55A, and T63A maintained binding affinity to IL-18Rα.
A general note: In SPR one partner is held on a chip, and binding of the other changes the refractive index at the surface.

Test [5] concerns the target T2, IL-18Rα/β heterodimer (Fc fused human IL-18Rα mixed and pre-incubated with Fc fused human IL-18Rβ) (human, UniProt Q13478 19-329; O95256 20-356, limits assumed).
T2 construct: 6 µg/mL of each receptor mixed and pre-incubated 30 min before capture on anti-human IgG; also called alpha/beta heterodimer IL-18 receptor; not shown: Fc part
T2 sequence (looked up) 1: T1 sequence (looked up)
T2 sequence (looked up) 2: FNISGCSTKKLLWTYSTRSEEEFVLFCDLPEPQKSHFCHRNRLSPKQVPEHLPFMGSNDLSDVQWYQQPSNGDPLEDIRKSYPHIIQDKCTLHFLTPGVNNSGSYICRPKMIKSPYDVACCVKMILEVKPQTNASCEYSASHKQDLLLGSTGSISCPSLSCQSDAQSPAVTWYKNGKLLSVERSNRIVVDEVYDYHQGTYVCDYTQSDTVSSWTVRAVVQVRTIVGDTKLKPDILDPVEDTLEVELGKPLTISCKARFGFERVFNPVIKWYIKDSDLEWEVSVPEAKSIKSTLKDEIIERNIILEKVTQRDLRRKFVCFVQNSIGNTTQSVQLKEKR
Put plainly: SPR, Fc-IL-18Rα/Fc-IL-18Rβ mix captured, heterogeneous ligand model. The method, then: as §2, §3
Modified IL-18 polypeptides bearing sequence modifications E06K, K53A, S55A, and T63A maintained binding affinity to IL-18Rα/β heterodimer.

Test [6] concerns the target T3, Fc fused human IL-18BP isoform a (IL-18BPa) (human, UniProt O95998 31-194).
T3 construct: also called IL-18BP monomer; not shown: Fc part
T3 sequence (looked up): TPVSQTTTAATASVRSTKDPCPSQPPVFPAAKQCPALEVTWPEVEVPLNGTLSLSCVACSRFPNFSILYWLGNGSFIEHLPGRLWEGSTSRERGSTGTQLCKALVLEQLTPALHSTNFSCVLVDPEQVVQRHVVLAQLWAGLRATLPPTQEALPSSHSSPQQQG
In words: SPR, Fc-IL-18BPa captured, 1:1 model. The method, then:
as §2, §3
Modified IL-18 polypeptides bearing sequence modifications K53A, S55A, E06K, C38S, C68S, C76S, C127S, and/or K70C maintained binding affinity to IL-18BP.

B1: Modified IL-18 polypeptide of SEQ ID NO: 2 (E06K, K53A, S55A) (ligand)
chain: YFGKLKSKLSVIRNLNDQVLFIDQGNRPLFEDMTDSDCRDNAPRTIFIISMYADAQPRGMAVTISVKCEKISTLSCENKIISFKEMNPPDNIKDTKSDIIFFQRSVPGHDNKMQFESSSYEGYFLACEKERDLFKLILKKEDELGDRSIMFTVQNED
On to B1, for which the “EC50 (read off the curve)” value in test [1] is about 0.2 nM. Further, in test [2], the “EC50 (pM), HEK-Blue IL18R reporter assay” value stood at 272 pM and the “Potency loss Mutant/NWT, HEK-Blue IL18R reporter assay” value (from here on “Potency loss Mutant/NWT”) stood at 81.8 fold. In addition, the concentration giving a half-maximal response (EC50 (read off the curve)) in test [3] is about 0.2 nM. Besides, in test [4], the Kd was 2000 nM, the koff turned out to be 0.0627 s⁻¹ and the kon is 31800 M⁻¹ s⁻¹. Also, in test [5], the Kd was determined as 1930 nM, the koff turned out to be 0.0734 s⁻¹ and the kon came out at 39200 M⁻¹ s⁻¹.

B2: Modified IL-18 polypeptide of SEQ ID NO: 71 (E6K, C38S, K53A) (ligand)
chain: B1 chain with C38S, A55S
Turning to B2, in test [2], the “EC50 (pM), HEK-Blue IL18R reporter assay” value was 0.86 pM and the “Potency loss Mutant/NWT” value was found to be 0.26 fold. In test [4], binding was characterised by a dissociation constant (Kd) of 72.4 nM, the koff is 0.0151 s⁻¹ and the kon was 208000 M⁻¹ s⁻¹. In test [5], this molecule came in with an equilibrium dissociation constant (Kd) of 2.92 nM, a koff of 0.0008 s⁻¹ and a kon of 279000 M⁻¹ s⁻¹. In test [6], this molecule displayed a Kd of 2.72 nM, a koff of 0.0031 s⁻¹ and a kon of 1.14e+06 M⁻¹ s⁻¹.

B3: Modified IL-18 polypeptide of SEQ ID NO: 71 with a 30 kDa PEG attached at residue C68 (E6K, C38S, K53A, C68-30kDPEG) (ligand)
chain: B1 chain with C38S, A55S
modifications: 30 kDa PEG on Cys 68 (30 kDa DBCO-polyethylene glycol clicked to a bromoacetamido-PEG5-azide linker on the cysteine)
notes: also called 71 + PEG
For the molecule B3, in test [2], the “EC50 (pM), HEK-Blue IL18R reporter assay” value was 1.85 pM and the “Potency loss Mutant/NWT” value was 0.56 fold. In test [4], this molecule came in with a Kd of 682 nM, a koff of 0.0217 s⁻¹ and an on-rate constant (kon) of 31800 M⁻¹ s⁻¹. In test [5], this molecule yielded a Kd of 23.9 nM, a koff of 0.0008 s⁻¹ and an on-rate (kon) of 32200 M⁻¹ s⁻¹. In test [6], this molecule showed an equilibrium dissociation constant (Kd) of 24.5 nM, a koff of 0.0039 s⁻¹ and a kon of 158000 M⁻¹ s⁻¹.
